Experiment [1] deals with T1, SARS-CoV-2 N protein (nucleocapsid) peptide on HLA-A*02:01 (human).
T1 peptide: RTATKAYNV
Briefly: multimer staining.

Experiment [2] addresses T2, SARS-CoV N protein (nucleocapsid) peptide on HLA-A*02:01 (human).
T2 peptide: RTATKQYNV
Briefly: multimer staining.

Consider two molecules from paper PMC11169541 (2024).

B1: TCR-2 (TCR)
alpha TRAV4*01 TRAJ34*01 CDR3: CLVGDVDTDKLIF
beta TRBV20-1*05 TRBJ1-6*01 CDR3: CSASHPGDSPLHF
Consider B1, for which the figures for the binding result in experiment [1] and in experiment [2] were “recognises” and “no recognition”, respectively.

B2: TCR-4 (TCR)
alpha TRAV17*01 TRAJ27*01 CDR3: CATDEDTNAGKSTF
beta TRBV4-1*01 TRBJ1-1*01 CDR3: CASSPDPWGVDTEAFF
Take B2: the binding result in experiment [1] was “recognises”; in experiment [2] it was “no recognition”.
